{"source": "the supplement of paper PMC9170038", "system": "MS2 coat protein", "experiment": "apparent KD of MS2 coat protein; designed switch direction (-1 OFF switch, 1 ON switch): -1; higher = weaker reporter binding", "in_short": "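The reported apparent KD is a per-design median over clusters, from curve fits of normalised cluster fluorescence. Protein titrations used SNAP-549-labelled MS2 coat protein, doubled from 0.7 or 1.5 nM to 3 µM, in Tris-HCl pH 7.5 buffer with KCl, MgCl2, BSA, DTT, tRNA and Tween-20, with no input, 200 uM small-molecule ligand, or an oligonucleotide input. The RNA switches were transcribed on Illumina chips by stalled E. coli RNA polymerase.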", "key": {"[1]": {"details": "input ligand: microRNA oligo, concentration not stated"}, "[2]": {"details": "Eterna round: R95, input ligand: FMN 200 uM"}, "[3]": {"details": "Eterna round: R95, input ligand: microRNA oligo, concentration not stated"}, "[4]": {"details": "Eterna round: R95, input ligand: none"}}, "data": [{"sequence": "UUUGUCAGCGUCGAAGUUUACAUGAGGAUCACCCAUGUGAUCAACACAGGCAUAUAAUUAGUAAUGAGUUCGUCUUC [Eternabot (L2) Solution 40] (Eterna round: R97, puzzle: Sensor, turn-off variant 1)", "values": [{"measurement": "apparent KD of MS2 coat protein", "setting": "input ligand: FMN 200 uM", "value": 24.9, "unit": "nM"}, {"measurement": "apparent KD of MS2 coat protein", "setting": "input ligand: none", "value": 30.2, "unit": "nM"}]}, {"sequence": "UAAAUGGUGUCAGGAUAUCCUGCAUAGUCUGCUGGAGAAGGGACAUGAGGAUCACCCAUGUAAGCCGGCAUGACUGAAUUCCUC [Atrice] (Eterna round: R96, puzzle: Exclusion NG 1)", "values": [{"measurement": "apparent KD of MS2 coat protein", "setting": "input ligand: FMN 200 uM", "value": 50.7, "unit": "nM"}, {"measurement": "apparent KD of MS2 coat protein", "setting": "[1]", "value": 23.3, "unit": "nM"}, {"measurement": "apparent KD of MS2 coat protein", "setting": "input ligand: none", "value": 32.2, "unit": "nM"}]}, {"sequence": "ACACUACAUGUAGGAUAUGCGUGGCGAAGCUAUGCAGAAGGACAUGAGGAUCACCCAUGUUUUAGCGUCUGCGUACAGAUGCGU [JL ENG1 1.46] (Eterna round: R96, puzzle: Exclusion NG 1)", "values": [{"measurement": "apparent KD of MS2 coat protein", "setting": "input ligand: FMN 200 uM", "value": 44.7, "unit": "nM"}, {"measurement": "apparent KD of MS2 coat protein", "setting": "[1]", "value": 16.4, "unit": "nM"}, {"measurement": "apparent KD of MS2 coat protein", "setting": "input ligand: none", "value": 19.3, "unit": "nM"}]}, {"sequence": "ACUUGUGCCCUAGGAUAUCGCCCAGCCAAUGGAUGAGAAGGAGGCGGGUGAAACAUGAGGAUCACCCAUGUAAACGCACAGGCG [Esa] (Eterna round: R96, puzzle: Exclusion NG 1)", "values": [{"measurement": "apparent KD of MS2 coat protein", "setting": "input ligand: FMN 200 uM", "value": 114, "unit": "nM"}, {"measurement": "apparent KD of MS2 coat protein", "setting": "[1]", "value": 25.5, "unit": "nM"}, {"measurement": "apparent KD of MS2 coat protein", "setting": "input ligand: none", "value": 26.9, "unit": "nM"}]}, {"sequence": "AACCUGAGGCUUUGCUUUAGGUGAACAUGAGGAUCACCCAUGUAGGAUAUGGUAGGCUUUGCUUACCAGAAGGACAUAUUAAUU [JL ENG3 1.12] (Eterna round: R96, puzzle: Exclusion NG 3)", "values": [{"measurement": "apparent KD of MS2 coat protein", "setting": "[1]", "value": 30.6, "unit": "nM"}]}, {"sequence": "UUAAAUCAUGUAGGAUAUGCGUGGCGAAGCUAUGCAGAAGGACAUGAGGAUCACCCAUGUGCUUCCGUCUGAGAACAGACGGUA [Mat - Exclusion NG 1 - Mod of JL - D12] (Eterna round: R96, puzzle: Exclusion NG 1)", "values": [{"measurement": "apparent KD of MS2 coat protein", "setting": "input ligand: FMN 200 uM", "value": 91.8, "unit": "nM"}, {"measurement": "apparent KD of MS2 coat protein", "setting": "[1]", "value": 63.9, "unit": "nM"}, {"measurement": "apparent KD of MS2 coat protein", "setting": "input ligand: none", "value": 93.1, "unit": "nM"}]}, {"sequence": "CCUCGACAUGAGGAUCACCCAUGUAAGGAUAUAAGUGCAGAGGGCGCGUAAUUAAUCGUGAGAAGGUACAACAC (Eterna round: R97, puzzle: Exclusion 1)", "values": [{"measurement": "apparent KD of MS2 coat protein", "setting": "input ligand: FMN 200 uM", "value": 32.1, "unit": "nM"}, {"measurement": "apparent KD of MS2 coat protein", "setting": "input ligand: none", "value": 31.1, "unit": "nM"}]}, {"sequence": "AUAAAUAAGGAGGAUAUCGAAUCGGAAACGAUUCGAGAAGGCCUAACAUGAGGAUCACCCAUGUUCCUUAAAUA [Mat - Exclusion 6 - Eli Mod - D63] (puzzle: Exclusion 6)", "values": [{"measurement": "apparent KD of MS2 coat protein", "setting": "[2]", "value": 30.2, "unit": "nM"}, {"measurement": "apparent KD of MS2 coat protein", "setting": "[3]", "value": 17.6, "unit": "nM"}, {"measurement": "apparent KD of MS2 coat protein", "setting": "[4]", "value": 20.8, "unit": "nM"}]}, {"sequence": "AAAUAAUAGAUAAAAUAACACAUGAGGAUCACCCAUGUGCGAUGUUGAGGGUGAUACAGGCUUUUUGCUCGUCUUAU (Eterna round: R96, puzzle: Sensor v3, turn-off variant 1)", "values": [{"measurement": "apparent KD of MS2 coat protein", "setting": "input ligand: FMN 200 uM", "value": 155, "unit": "nM"}, {"measurement": "apparent KD of MS2 coat protein", "setting": "[1]", "value": 415, "unit": "nM"}, {"measurement": "apparent KD of MS2 coat protein", "setting": "input ligand: none", "value": 133, "unit": "nM"}]}, {"sequence": "AAUAACAAGCAAGAUCCUAACAUGAGGAUCACCCAUGUGCUCGUCUUGUAAAGUACUAUCACGAAAGUGAUAGUACA [Sensor 3, v1 - 48] (puzzle: Sensor v3, turn-off variant 1)", "values": [{"measurement": "apparent KD of MS2 coat protein", "setting": "[2]", "value": 20, "unit": "nM"}, {"measurement": "apparent KD of MS2 coat protein", "setting": "[3]", "value": 723, "unit": "nM"}, {"measurement": "apparent KD of MS2 coat protein", "setting": "[4]", "value": 22.1, "unit": "nM"}]}, {"sequence": "GGGCGUAGGCAGGAUAUGUAAGGCUGUUGGUCUAUAGAAGGGUUUACAUGAGGAUCACCCAUGUGACCGAACCG [Eternabot (L2) Solution 16] (Eterna round: R97, puzzle: Exclusion 6)", "values": [{"measurement": "apparent KD of MS2 coat protein", "setting": "input ligand: FMN 200 uM", "value": 18.2, "unit": "nM"}, {"measurement": "apparent KD of MS2 coat protein", "setting": "input ligand: none", "value": 16.4, "unit": "nM"}]}, {"sequence": "GUCAGCUCGUCAGGAUAUAUAUACAUGAGGAUCACCCAUGUAAGAUCAGCACUUCGGUGCAGUAUAUAGAAGGGACGAGCUGAC [ENG2/13-B1] (Eterna round: R96, puzzle: Exclusion NG 2)", "values": [{"measurement": "apparent KD of MS2 coat protein", "setting": "input ligand: FMN 200 uM", "value": 40.6, "unit": "nM"}, {"measurement": "apparent KD of MS2 coat protein", "setting": "[1]", "value": 13.7, "unit": "nM"}, {"measurement": "apparent KD of MS2 coat protein", "setting": "input ligand: none", "value": 29.1, "unit": "nM"}]}, {"sequence": "GAUCAUGCAGGAUAUACAGUAUCCAUGAAAACAUGGAUCUAACAUGAGGAUCACCCAUGUAGAAGGGCAUGAUC [Omei Ex2 A24] (Eterna round: R97, puzzle: Exclusion 2)", "values": [{"measurement": "apparent KD of MS2 coat protein", "setting": "input ligand: FMN 200 uM", "value": 17.9, "unit": "nM"}, {"measurement": "apparent KD of MS2 coat protein", "setting": "input ligand: none", "value": 19, "unit": "nM"}]}, {"sequence": "AAGUGUGCCUAGGAUAUGUUCGGCCAAGGUCAUACAGAAGGAGGCACAUGAGGAUCACCCAUGUAGUGUCCAAC [Orririvebe] (puzzle: Exclusion 6)", "values": [{"measurement": "apparent KD of MS2 coat protein", "setting": "[3]", "value": 88.1, "unit": "nM"}]}, {"sequence": "ACCUCACAUGAGGAUCACCCAUGUCAGGAUAUCUAUUAUUGCAGCAAUCCUGUCGCUGAGAGAAGGGACAUUAA [EX1 #27] (Eterna round: R97, puzzle: Exclusion 1)", "values": [{"measurement": "apparent KD of MS2 coat protein", "setting": "input ligand: FMN 200 uM", "value": 32.2, "unit": "nM"}, {"measurement": "apparent KD of MS2 coat protein", "setting": "input ligand: none", "value": 33, "unit": "nM"}]}, {"sequence": "CCUCUGUGAGGAUAUCGCGGCGGGCUAACUCGCAAACAAAACGAGAAGGCACAUGAGGAUCACCCAUGUAGGUG [Cetiis] (Eterna round: R97, puzzle: Exclusion 4)", "values": [{"measurement": "apparent KD of MS2 coat protein", "setting": "input ligand: FMN 200 uM", "value": 39.1, "unit": "nM"}, {"measurement": "apparent KD of MS2 coat protein", "setting": "input ligand: none", "value": 262, "unit": "nM"}]}, {"sequence": "CGCAUACAUGAGGAUCACCCAUGUGAGGAUAUCAUGCUUCGUAGUAAACUACGAAGUGUGAGAAGGCACAUGCG [Omei Ex1 D2] (Eterna round: R97, puzzle: Exclusion 1)", "values": [{"measurement": "apparent KD of MS2 coat protein", "setting": "input ligand: FMN 200 uM", "value": 112, "unit": "nM"}, {"measurement": "apparent KD of MS2 coat protein", "setting": "input ligand: none", "value": 62.6, "unit": "nM"}]}, {"sequence": "CAAUUGGGAGGAUAUACAUGAGGAUCACCCAUGUCGAUCCCAGGUAAGUUAAUACUUCGUAGAAGGCCUAUCUC [Eternabot (L2) Solution 16] (Eterna round: R97, puzzle: Exclusion 3)", "values": [{"measurement": "apparent KD of MS2 coat protein", "setting": "input ligand: FMN 200 uM", "value": 20.6, "unit": "nM"}, {"measurement": "apparent KD of MS2 coat protein", "setting": "input ligand: none", "value": 17.6, "unit": "nM"}]}, {"sequence": "GAUUAUGCGAGCUUUAGGGACAUGAGGAUCACCCAUGUUCGUCUUAUUAAUCUAGGUACACUAACAUACCUAAAUCU [JMF 10] (puzzle: Sensor v3, turn-off variant 1)", "values": [{"measurement": "apparent KD of MS2 coat protein", "setting": "[2]", "value": 23.9, "unit": "nM"}, {"measurement": "apparent KD of MS2 coat protein", "setting": "[3]", "value": 37.6, "unit": "nM"}, {"measurement": "apparent KD of MS2 coat protein", "setting": "[4]", "value": 21.4, "unit": "nM"}]}, {"sequence": "CGGGAGGGACAAGCUGUUUGCACGUCUGGUAGUGAUGCAACAUGAGGAUCACCCAUGUAUAGGGUGUGAGAGGAUGG [JR_SV3TOV2_Sub050] (Eterna round: R96, puzzle: Sensor v3, turn-off variant 2)", "values": [{"measurement": "apparent KD of MS2 coat protein", "setting": "input ligand: FMN 200 uM", "value": 1330, "unit": "nM"}, {"measurement": "apparent KD of MS2 coat protein", "setting": "[1]", "value": 149, "unit": "nM"}, {"measurement": "apparent KD of MS2 coat protein", "setting": "input ligand: none", "value": 338, "unit": "nM"}]}, {"sequence": "UAUUAUAAUGUAGGAUAUCUGCACGAUUAGUGCAGAGAAGGACAUGAGGAUCACCCAUGUAUAGUAGCUUCGGCUACAUUAUUU [ENG1-B1] (Eterna round: R96, puzzle: Exclusion NG 1)", "values": [{"measurement": "apparent KD of MS2 coat protein", "setting": "input ligand: FMN 200 uM", "value": 114, "unit": "nM"}, {"measurement": "apparent KD of MS2 coat protein", "setting": "[1]", "value": 60.7, "unit": "nM"}, {"measurement": "apparent KD of MS2 coat protein", "setting": "input ligand: none", "value": 77.5, "unit": "nM"}]}, {"sequence": "UACAGUCGAGGAUAUACGAUCGUGCUUCGGCACGUAAGAUCACAUGAGGAUCACCCAUGUAGAAGGCGACUGUA [Mod 9 - Jieux - Exclusion 2] (Eterna round: R97, puzzle: Exclusion 2)", "values": [{"measurement": "apparent KD of MS2 coat protein", "setting": "input ligand: FMN 200 uM", "value": 226, "unit": "nM"}, {"measurement": "apparent KD of MS2 coat protein", "setting": "input ligand: none", "value": 35.1, "unit": "nM"}]}, {"sequence": "ACAUUCAGAGGAUAUGCGCAUAGAUAAGACUUUUUUUUUUAACAUGAGGAUCACCCAUGUAGAAGGCUGUAACA [Ex2 #49] (Eterna round: R97, puzzle: Exclusion 2)", "values": [{"measurement": "apparent KD of MS2 coat protein", "setting": "input ligand: FMN 200 uM", "value": 21.4, "unit": "nM"}, {"measurement": "apparent KD of MS2 coat protein", "setting": "input ligand: none", "value": 21.7, "unit": "nM"}]}]}
